# Columns and labels:
# [1] = test system: Pen1-XBIR3 (Penetratin1 disulfide-linked to the BIR3 domain from XIAP)
# [2] = test system: caspase-cleaved tau (caspase-6 substrate); test: Intranasal Pen1-C6DN prior to 1 hr tMCAo in mice; western blot for caspase-cleaved tau (anti-TauC3); type: in vivo, mouse; conditions: intranasal 1 hr prior to 1 hr tMCAo, 24 hpr
# Excerpt: To determine if a direct blockade of caspase-6 would provide protection from ischemia, a Pen1-linked caspase-6 domininat negative (Pen1-C6DN) construct was utilized. Pen1-C6DN was delivered by intransasal bolus to mice 1 hr prior to tMCAo and mice were then subjected to 1 hrMCAo followed by reperfusion. Animals were sacrificed at 24 hpr and core and penumbra regions of brain prepared for Western blotting. As depicted in FIG. 7, protein lysate from the core and penumbra regions of the stroke infarct (24 hpr) was isolated. Ipsilateral (stroked) hemispheres contained abundant caspase-cleaved tau when only treated with vehicle.
# Intranasal Pen1-C6DN Prevents Cleavage of Caspase-6 Substrates. Caspase-6 catalytic dominant negative (C6DN; C285A) was isolated and purified as described previously. Denault, J. B. and G. S. Salvesen, Expression, purification, and characterization of caspases. Curr Protoc Protein Sci, 2003. Chapter 21: p. Unit 21 13. Pen1 (Q-Biogene) was mixed at an equimolar ratio with purified C6DN and incubated overnight at 37° C. to generate disulfide-linked Pen1-C6DN. Linkage was assessed by 20% SDS-PAGE and Western blotting with anti-His and anti-Caspase-6 antibodies.
# Male C57BL/6 mice (2-3 months old; ≥25 g) were anesthetized using isoflurane (2%) delivered via an anesthesia mask. […]
# [3] = target: T1, Pen1-C6DN (Penetratin1 disulfide-linked to caspase-6 catalytic dominant negative, C285A)
# T1 chain 1: RQIKIWFQNRRMKWKK
# T1 chain 2: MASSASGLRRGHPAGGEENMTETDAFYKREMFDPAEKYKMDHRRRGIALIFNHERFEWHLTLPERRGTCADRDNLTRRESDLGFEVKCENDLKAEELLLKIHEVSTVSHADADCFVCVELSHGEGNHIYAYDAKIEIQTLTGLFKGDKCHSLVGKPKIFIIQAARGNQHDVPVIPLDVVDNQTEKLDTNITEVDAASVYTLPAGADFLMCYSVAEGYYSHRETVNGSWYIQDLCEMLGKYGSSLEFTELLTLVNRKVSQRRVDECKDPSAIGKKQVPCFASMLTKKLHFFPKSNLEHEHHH
# Chain of Pen1-XBIR3 (Penetratin1 disulfide-linked to the BIR3 domain from XIAP) (chain, as listed by the source): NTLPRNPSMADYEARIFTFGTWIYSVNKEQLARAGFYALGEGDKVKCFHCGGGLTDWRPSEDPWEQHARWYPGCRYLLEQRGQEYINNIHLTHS
molecule,measurement,setting,value
"caspase-9 (rat, endogenous in brain or hippocampal neurons)","C1-C6 processes (count of cleaved caspase-6 positive processes), intranasal delivery, 12 hpr",[1],"Vehicle-12 hpr: 144.0±28.50, n=3 vs. Pen1-XBIR3-12 hpr: 102.7±23.15, n=3; p=0.3233"
same,"C1-C6 processes (count of cleaved caspase-6 positive processes), intranasal delivery, 24 hpr",[1],"Vehicle-24 hpr: 109.7±12.73, n=3 vs. Pen1-XBIR3-24 hpr: 57.33±10.04, n=3; p=0.032"
same,immunostaining for caspase-9 and cleaved caspase-6 at 24 hpr after convection enhanced delivery to rat striatum,[1],Pent-XBIR3 inhibited appearance of c1-C6 and caspase-9 in cell bodies and processes
same,immunostaining for cleaved caspase-6 and caspase-9 at 24 hpr (FIG. 3D),[1],"The caspase-9 specific inhibitor, Pen1-XBIR3, blocks the increase in caspase-9 and the induction of c1-C6 observed at 24 hpr"
Pen1-C6DN: Caspase-6 catalytic dominant negative (C6DN; C285A) disulfide-linked to Penetratin1 (SEQ ID NO: 11) (conjugate) peptide: RQIKIWFQNRRMKWKK MASSASGLRRGHPAGGEENMTETDAFYKREMFDPAEKYKMDHRRRGIALIFNHERFEWHLTLPERRGTCADRDNLTRRESDLGFEVKCENDLKAEELLLKIHEVSTVSHADADCFVCVELSHGEGNHIYAYDAKIEIQTLTGLFKGDKCHSLVGKPKIFIIQAARGNQHDVPVIPLDVVDNQTEKLDTNITEVDAASVYTLPAGADFLMCYSVAEGYYSHRETVNGSWYIQDLCEMLGKYGSSLEFTELLTLVNRKVSQRRVDECKDPSAIGKKQVPCFASMLTKKLHFFPKSNLEHEHHH,caspase-cleaved tau in core and penumbra lysate,[2],reduced cleavage of caspase-cleaved tau
"caspase-6 (mouse, endogenous in brain) (protein) MTETDGFYKSREVFDPAEQYKMDHKRRGVALIFNHERFFWHLTLPERRGTNADRDNLTRRFSDLGFEVKCFNDLRAEELLLKIHEVSTSSHIDADCFICVFLSHGEGNHVYAYDAKIEIQTLTGLFKGDKCQSLVGKPKIFIIQACRGSQHDVPVVPLDMVDHQTDKLDNVTQVDAASVYTLPAGADFLMCYSVAEGYYSHRETVNGSWYIQDLCEMLARYGSSLEFTELLTLVNRKVSQRRVDFCKDPDAIGKKQVPCFASMLTKKLHFCPKPSK","caspase-cleaved tau in mouse brain lysate at 24 hpr (western blot, anti-TauC3)",[3],Pen1-C6DN reduced cleavage of caspase-cleaved tau
